The assay deals with sigma 54 (sigma^54) transcription factor from Vibrio harveyi, product of the rpoN gene (Vibrio harveyi). Description: cell-based or functional assay.

Turning to “LuxO D47E ("locked" form mimicking activated phospho-LuxO), Vibrio harveyi (from UniProt P0C5S5 1-453)”, the % W.T. Lux (bioluminescence per cell at high cell density); strain JAF548, luxO D47E, wild type rpoN present (% of wild type) is 0.002; the % W.T. Lux; strain BNL244, luxO D47E, rpoN::Cm^r (sigma^54 absent) (% of wild type) was found to be 77; the % W.T. Lux; strain BNL244, luxO D47E, rpoN::Cm^r, with Plac-rpoN in trans (sigma^54 restored) (% of wild type) is 1.4; the Siderophore units (chromazurol S assay); strain JAF548, luxO D47E, wild type rpoN present (siderophore units) is 50. In addition, the Siderophore units; strain BNL244, luxO D47E, rpoN::Cm^r (sigma^54 absent) (siderophore units) came to 4 and the Siderophore units; strain BNL244, luxO D47E, rpoN::Cm^r, with Plac-rpoN in trans (sigma^54 restored) (siderophore units) amounted to 25.
For the substance “phospho-LuxO (wild type LuxO, constitutively phosphorylated in luxN L166R strains), Vibrio harveyi (from UniProt P0C5S5 1-453)”, the % W.T. Lux; strain BNL248, luxN L166R, rpoN::Cm^r (sigma^54 absent) (% of wild type) stood at 55; the % W.T. Lux; strain BNL248, luxN L166R, rpoN::Cm^r, with Plac-rpoN in trans (sigma^54 restored) (% of wild type) came out at 1.1; the % W.T. Lux; strain JAF549, luxN L166R, wild type rpoN present (% of wild type) came to 0.004.

Values taken from US20030023032A1.
